PMC12012533, “Structural basis for immune cell binding of Fusobacterium nucleatum via the trimeric autotransporter adhesin CbpF” (Proceedings of the National Academy of Sciences of the …, 2025)
Several values for one entry are separate records, joined by “and”; a condition that tells them apart may be missing. Equal entries are not always repeated.

T1: CEACAM1-eGFP fusion protein on transfected HEK293T cells (human, UniProt P13688 35-526)
T1 construct: human CEACAM1 expressed from pcDNA3.1 as a GFP fusion; also called GFP-tagged CEACAM1; CEACAM1-GFP; source: HEK293T, transfected (pcDNA3.1, CMV promotor), on cells
T1 sequence (looked up): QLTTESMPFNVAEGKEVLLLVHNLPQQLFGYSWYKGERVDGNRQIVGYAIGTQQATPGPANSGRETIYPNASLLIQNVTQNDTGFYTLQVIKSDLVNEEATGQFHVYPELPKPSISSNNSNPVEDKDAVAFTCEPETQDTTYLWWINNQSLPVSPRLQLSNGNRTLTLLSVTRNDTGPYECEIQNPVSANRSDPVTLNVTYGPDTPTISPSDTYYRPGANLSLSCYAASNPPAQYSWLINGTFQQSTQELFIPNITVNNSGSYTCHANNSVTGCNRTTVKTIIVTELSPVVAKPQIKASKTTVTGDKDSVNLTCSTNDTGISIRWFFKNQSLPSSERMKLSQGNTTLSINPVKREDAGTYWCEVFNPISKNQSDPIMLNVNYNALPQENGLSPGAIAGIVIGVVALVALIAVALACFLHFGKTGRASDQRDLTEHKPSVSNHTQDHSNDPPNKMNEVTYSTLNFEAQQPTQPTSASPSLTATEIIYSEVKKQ

B1: CEACAM binding protein of Fusobacterium (CbpF) from F. nucleatum ATCC25586, wild type, detergent-solubilised (natural protein)
chain: SAAPVIKAGTATDSTEAGVDNVANGVKSSAFGYDNKAIEKESSAFGTGNRATGEFSSAFGFHNIASKIHSSAFGSNNAADGVNSSAFGFKNTVSGFNSSAFGSQYQVTGNFSGAFGMGEFNGQYQYKNEGNNSYMIGNKNKIASGSDDNFILGNNVHIGGGINNSVALGNNSTVSASNTVSVGSSTLKRKIVNVGDGAISANSSDAVTGRQLYSGNGIDTAAWQNKLNVTRKNDYKDANDIDVNKWKAKLGVGSGGGGGAPVDAYTKSEADNKFANKTDLNDYTKKDDYKDANGIDVDKWKAKLGTGAGTADIENLRNEVNEKIDDVKDEVRTVGSLSAALAGLHPMQYDPKAPVQVMAALGHYRDKQSVAVGASYYFNDRFMMSTGIALSGEKRTKTMANVGFTLKLGKGSGVTYDETPQYVVQNEVKRLTVENQELKERVRNLEEKLNMLLKNK
notes: Cloned in pASK-IBA2C behind an N-terminal E. coli OmpA signal peptide; Homotrimer; also called CbpF WT; CbpF wt; source: E. coli BL21 C43, extracted from membranes with lauroylsarcosine, purified (StrepTactin, SEC)
B2: CEACAM binding protein of Fusobacterium (CbpF), F. nucleatum ATCC25586, wild type (natural protein)
chain: B1 chain
modifications: AlexaFluor 647 NHS-ester conjugate (cell binding and competition assays only)
notes: CbpF (FN1499) of Fusobacterium nucleatum ATCC25586, codon-optimized gene; mature protein after signal peptide cleavage, residues S24-K479; numbers count on the precursor with its own signal peptide; Cloned in frame with an N-terminal E. coli OmpA signal peptide (export signal; In detergent for SPR and the SEC test, in DMPC/MSP1D1 nanodiscs for cryo-EM and the cell assays; also called CbpF wt; …)
B3: CEACAM1 extracellular domain (residues 35-428), C-terminal hexahistidine tag (domain or fragment, human, UniProt P13688 35-428, looked up)
chain: QLTTESMPFNVAEGKEVLLLVHNLPQQLFGYSWYKGERVDGNRQIVGYAIGTQQATPGPANSGRETIYPNASLLIQNVTQNDTGFYTLQVIKSDLVNEEATGQFHVYPELPKPSISSNNSNPVEDKDAVAFTCEPETQDTTYLWWINNQSLPVSPRLQLSNGNRTLTLLSVTRNDTGPYECEIQNPVSANRSDPVTLNVTYGPDTPTISPSDTYYRPGANLSLSCYAASNPPAQYSWLINGTFQQSTQELFIPNITVNNSGSYTCHANNSVTGCNRTTVKTIIVTELSPVVAKPQIKASKTTVTGDKDSVNLTCSTNDTGISIRWFFKNQSLPSSERMKLSQGNTTLSINPVKREDAGTYWCEVFNPISKNQSDPIMLNVNYNALPQENGLSPG
modifications: glycosylated
notes: carcinoembryonic antigen-related cell adhesion molecule 1 (CEACAM1), human, extracellular domain, residues 35-428; also called CEACAM1-ECD; CEACAM1/ECD; source: bought: ACRO Biosystems, Cat. No. CE1-H5220, produced in HEK293 cells; not shown: His6, C-terminal, kept
B4: CEACAM1 extracellular domain (residues 35–428), C-terminal hexahistidine tag (domain or fragment, human, UniProt P13688 35-428, looked up)
chain: B3 chain
modifications: glycosylated (N-acetylglucosamines modelled on the IgV-like and IgC2-like A1 domains)
notes: human carcinoembryonic antigen-related cell adhesion molecule 1 (CEACAM1), extracellular domain, residues 35-428 of UniProt P13688; also called CEACAM1/ECD; CEACAM1-ECD; source: bought: ACRO Biosystems (Cat. No. CE1-H5220), produced in HEK293 cells; not shown: His6, C-terminal, kept

How the values were obtained:
[1] = molecular target: the molecule itself; test: SDS-PAGE (SDS- and heat-resistant oligomer); elution fractions of membrane-extracted CbpF from StrepTactin resin; monomer at 50 kDa, trimer at 150 kDa
[2] = molecular target: T1, CEACAM1-eGFP fusion protein on …; test: confocal fluorescence microscopy of labelled protein on cells; 1 µM AlexaFluor 647-labelled CbpF nanodiscs on HEK293T cells transfected with CEACAM1-GFP, 2 h at 37 °C, compared with empty nanodiscs; integrated fluorescence colocalizing with GFP or with the membrane stain; settings: one partner purified
[3] = molecular target: the molecule itself; test: SDS-PAGE (SDS- and heat-resistant oligomer); purified CbpF, in detergent and after reconstitution in DMPC/MSP1D1 nanodiscs; band above 150 kDa
[4] = molecular target: B4; test: cryo-EM structure; 4.6 µM nanodisc-embedded CbpF (trimer) incubated with 14 µM CEACAM1/ECD for 60 min at 23 °C, excess CEACAM1 removed by SEC; single particle analysis, C3 symmetry; settings: both partners purified
[5] = molecular target: B1; test: SPR; CEACAM1-ECD-His6 captured (about 35 RU) on anti-His antibody on a CM5 chip, Biacore T200; CbpF injected at 11.5-1480 nM (WT) or 15.6-1000 nM (WT and variants); 25 mM MOPS-NaOH, 150 mM NaCl, 1 % P8POE, pH 7.0, 25 °C; 240 s association, 600 s dissociation; 1:1 Langmuir global fit; settings: both partners purified
[6] = molecular target: B2; test: competition of cell binding (confocal fluorescence microscopy); labelled CbpF nanodiscs preincubated with 1 or 2 µM purified CEACAM1-ECD for 30 min at 25 °C before incubation with cells; settings: both partners purified
[7] = molecular target: B2; test: SPR; Biacore T200; CEACAM1-ECD-His6 captured on an anti-His antibody on a CM5 chip (~35 RU); CbpF injected, 11.5 to 1,480 nM (WT) or 15.6 to 1,000 nM (WT and variants); 25 mM MOPS-NaOH, 150 mM NaCl, 1 % P8POE, pH 7.0, 25 °C; global fit with a 1:1 Langmuir or a heterogeneous ligand model; settings: both partners purified
[8] = molecular target: B2; test: SPR; same sensorgrams as a4, steady-state signals of the binding curves evaluated; settings: both partners purified

B1
stoichiometry N [1]: 3

B2
fold increase of the mean fluorescence signal over empty nanodiscs (colocalizing with cells) [2]: 9.3 fold | fold increase of the mean fluorescence signal over nanodiscs without CbpF (colocalizing with CEACAM1-GFP) [2]: ~460 fold | stoichiometry N [3]: 3 | stoichiometry N [4]: 1 CEACAM1 per CbpF protomer

B3
Kd [5]: 6.16 nM and 6.29 nM | koff [5]: 0.000501 s⁻¹ and 0.000844 s⁻¹ | kon [5]: 134000 M⁻¹ s⁻¹

B4
fold decrease of the CbpF signal on cells after preincubation [6]: ~11 fold | Kd [7]: 6.2 nM | koff [7]: 0.00051 s⁻¹ | kon [7]: 81300 M⁻¹ s⁻¹ | Kd [8]: 75 ± 14 nM
